{
  "source": "patent US20160264684A1",
  "about": "“GLYCAN-INTERACTING COMPOUNDS AND METHODS OF USE” (SIAMAB THERAPEUTICS, INC., priority 2013, published 2016)",
  "molecules": {"B1": {"name": "18D2: anti-STn monoclonal antibody from mouse #4436; IgG2b κ; heavy chain SEQ ID NO 1, light chains SEQ ID NO 2 and 3 (antibody, V domains shown)", "VH": "QVTLKESGPGILQPSQTLSLTCSFSGFSLSTSNMGIGWIRQPSGKGLEWLAHIWWHDDKYYNPSLKSRLTISKDISNNQVFLKITSVDTADTATYYCAQVPFYYGTSFDVWGTGTTVTVSS", "VL 1": "DIVMTQSPATLSVTPGDRVSLSCRASQSISDYLHWYQQKSHESPRLLIKYASQSISGIPSRFSGSGSGSDFTLSINSVEPEDVGVYYCQNGHSFPLTFGAGTKLELK", "VL 2": "QIVLTQSPAIMSASPGETVTMTCSASSSITYMHWYQQKPGTSPKRWIYDTSKLASGVPARFSGSGSGTSYSLTISSMEAEDAATYYCHQRSSYTFGGGTKLEIKR"}},
  "key": {"[1]": {"assay": "Glycan microarray analysis, GcSTn", "format": "binding", "protocol": "(§1) Optimized glycan arrays comprise 71 chemically synthesized and well-defined glycans, most of which comprise Neu5Ac and Neu5Gc glycan pairs.\n(§2) 300 ml of epoxy blocking buffer is prepared by combining 15 ml of 2 M Tris buffer (pH 8) with 0.9 ml of 16.6 M ethanolamine and 284.1 ml of distilled water. The solution is filtered using a 0.2 μM nitrocellulose membrane. The epoxy buffer solution as well as 1 L of distilled water are pre-warmed to 50° C. Glass slides are arranged in a slide holder and quickly submerged in a staining tub with the warmed epoxy blocking buffer. Slides are incubated in the epoxy blocking buffer for 1 hour at 50° C. with periodic shaking to deactivate epoxy binding sites. Next, slides are rinsed and blocked with PBS with 1% OVA at 25° C. for one hour. Serum samples are diluted 1:1000 in PBS with 1% OVA and added to the glycan array for one hour at 25° C. After extensive washing, binding of polyclonal serum antibodies are detected by incubating glycan microarray slides with Cy3-conjugated anti-mouse IgG (Jackson Immunoresearch, West Grove, Pa.) for one hour. […]\n(§3) 18D2 and 18C7 clones were expanded and binding properties of these hybridomas were determined by glycan microarray analysis according to Example 4. […] No binding to Tn antigen or other glycans was detected."}, "[2]": {"assay": "Glycan microarray analysis, AcSTn", "format": "binding", "protocol": "as §1, §2, §3"}},
  "data": [
    {"molecule": "B1", "values": [
      {"measurement": "Glycan Array GcSTn", "setting": "[1]", "result": 50, "unit": "%"},
      {"measurement": "mean fluorescence intensity, GcSTn", "setting": "[1]; glycan microarray", "result": "about 7,000"},
      {"measurement": "Glycan Array AcSTn", "setting": "[2]", "result": 50, "unit": "%"},
      {"measurement": "mean fluorescence intensity, AcSTn", "setting": "[2]; glycan microarray", "result": "about 16,000"}
    ]}
  ]
}
